# Assay results reported in patent publication US20230322924A1 (Janssen / Centocor, published 2023).
# Numbering of substitutions follows the chain as printed. Names may count otherwise.
# B1: C33B72 (antibody, IgG1, V domains shown)
# VH: QVQLVESGGGVVQPGRSLRLSCAASGFTFSSYGMHWVRQAPGKGLEWVVVISYDGSNKYYADSVKGRFTISRDNSKNTLYLQMNSLRAEDTAVYYCAKDFRDFDWLPPDSTSYHGMDVWGQGTTVTVSS
# VL: SYELTQPPSVSVSPGQTASITCSGDKLGDKYACWYQQKPGQSPVVVIYQDRKRPSGIPERFSGSNFGNTATLTISGTQAMDEADYYCQAWDSSTVVFGGGTKLTVL
# notes: huIgG1 F405L; also called C33F77; C33H65/C33L47
# B2: C33B52 (antibody, IgG1, V domains shown)
# VH: QLQLQESGPGLVNPSETLSHTCTVSGGSISSSSHYWGWIRQPPGKGLEWIGKIYYSGNTYYNPSLKSRVTISIDTSKNQFSLKMSSVTAADTAVYYCARLADVVVVPAARYFDSWGQGTLVTVSS
# VL: B1 VL with T21I, D29N, V45L, R51S, F66S, M80V, V95Y, G99T, L103V
# notes: huIgG1 F405L; also called C33F57; C33H42/C33L8
# B3: C33B63 (antibody, IgG1, V domains shown)
# VH: QLQLQESGPGLVKPSETLSLTCTVSGGSISTGRYYWGWIRQPPGKGVIWIGNIYYSGNTYYNPSLKSRVTISVDTSKNQFSLKLNSVTAADTAVYYCARLGSLVVVPAAMSFDYWGQGTLVTVSS
# VL: B1 VL with Q37L, K38R, V44I, V45L, R51S, K52N, F66S, V95W
# notes: huIgG1 F405L; also called C33F68; C33H51/C33L34
# B4: C33B125 (antibody, IgG1, V domains shown)
# VH: B1 VH with V49A, D102S, H114Y
# VL: B1 VL with A32V, Y48H
# notes: huIgG1 F405L; also called C33F130; C33H84/C33L66
# B5: C33B79 (antibody, IgG1, V domains shown)
# VH: B1 VH with G26R, V49A, Y94H, D102S, T111A
# VL: B1 VL with S13P, V45L, R51N, F66S, D91G, S92R, S93N
# notes: huIgG1 F405L; also called C33F84; C33H74/C33L38
# B6: C33B55 (antibody, IgG1, V domains shown)
# VH: B1 VH with A40S, V49A, Y60C, N77S, D102S, F103L, H114D
# VL: B1 VL with D25H, Q49K, R51S
# notes: huIgG1 F405L; also called C33F60; C33H45/C33L11
# B7: C33B83 (antibody, V domains shown)
# VH: B1 VH with S31A, V49A, D90G, D102S, T111A
# VL: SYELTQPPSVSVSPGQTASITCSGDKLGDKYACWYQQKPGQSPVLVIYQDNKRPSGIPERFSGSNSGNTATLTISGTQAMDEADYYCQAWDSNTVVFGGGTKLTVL
# notes: huIgG1 F405L; also called C33F88; C33H81/C33L53
# B8: C33B73 (antibody, IgG1, V domains shown)
# VH: B1 VH with A23V, V49A, D90G, D102S, T111A
# VL: B1 VL with V45L, R51G, T69K, S92R, S93N
# notes: huIgG1 F405L; also called C33F78; C33H66/C33L60
# B9: C33B82 (antibody, IgG1, V domains shown)
# VH: B1 VH with V49A, Y80F, D102Y, T111S, H114Y
# VL: B1 VL with K26E, D29N, I47V
# notes: huIgG1 F405L; also called C33F87; C33H78/C33L57
# Molecular target: T1, Cyno CD33 full length, expressed on HEK293F cells (cynomolgus monkey)
# T1 construct: HEK293F cells transduced with lentivirus containing full length cyno CD33 (Genbank XP_005590138.1); also called cyCD33
# Assay: flow cytometry, HEK293F cells expressing cyno CD33
# Method: (§1) OMNIRat antibodies identified via immunization, v-region cloned and subsequently expressed and purified were characterized further for binding to CD33 expressing cells and binding to recombinant antigens. The purified antibodies were assessed for binding to stably transfected HEK293F cells expressing human CD33 or cyno CD33 (generation described above) along with the parental HEK293F as negative control. Cells were harvested from tissue culture flasks using non-enzymatic dissociation buffer (Thermo Scientific). The flasks were rinsed twice with PBS and dissociation buffer was added to the flask, and the flask was incubated for 10 minutes at 37° C. until the cells became non-adherent. The cells were centrifuged at 300 g for 5 minutes and resuspended at 1.0×10⁶ cells/ml in staining buffer (Becton Dickinson; Franklin Lakes, NJ). 50,000 cells/well of each cell type was plated in 50 μl of staining buffer in round bottom plates (Becton Dickinson). […] 100 μl staining buffer was added to all wells of each plate, the plates were spun at 300 g for 5 min, the buffer was removed, 200 μl staining buffer was added to all wells of each plate, the plates were spun at 300 g for 5 min, and the buffer was removed. 50 μl of 2 μg/ml of Goat-anti-human Fc AF647 secondary antibody (Jackson Immunoresearch; West Grove, PA) was added to all wells of the plates, and the plates were incubated for 30 min at 4° C. 100 μl staining buffer was added to all wells of the plates, the plates were spun at 300 g for 5 min, and the buffer was removed. 200 μl running buffer (running buffer is Staining buffer, 1 mM EDTA, 0.1% Pluronic Acid) was added to all wells of the plates, the plates were spun at 300 g for 5 min, and the buffer was removed. 30 μl running buffer containing Sytox Green live/dead dye (ThermoFisher) was added to all wells with cells and the plates were read on an iQue IntelliCyt flow cytometer. Cells were gated on forward vs. side scatter to eliminate debris, then on singlets and then on live cells which excluded the Sytox stain. Antibody binding was assessed by the mean fluorescence intensity in the AF647 channel.
MFI at 0 nM mAb (background) [MFI],MFI at 0.6 nM mAb [MFI],MFI at 6 nM mAb [MFI],MFI at 60 nM mAb [MFI],Binder
90.8,3890,14000,19400,B1
75.2,2060,8440,12600,B2
87.9,2880,11600,18300,B3
70.2,3460,11500,15600,B4
63.6,1080,6430,15500,B5
69.4,2430,9990,16000,B6
87.3,159,687,5300,B7
72.5,796,6990,14800,B8
84.2,1540,6620,14300,B9

# Molecular target: T2, Cyno CD33 ECD-HSA (cynomolgus monkey)
# T2 construct: Cyno CD33 extracellular domain fused to monomeric human serum albumin and a six-histidine tag; also called C33W1
# Assay: SPRi off-rate screen (IBIS MX96), mAb captured by anti-human Fc; column head prints Cyno CD33 binding KD
# Method: (§2) To begin assessing the biophysical binding properties of the purified mAbs an off-rate screen was performed. 76 OMNIRat anti-CD33 mAbs were tested for binding to recombinant human CD33 ECD-HSA (C33W2) and cyno CD33 ECD-HSA (C33W1) proteins (Janssen production) and the off-rate was measured by IBIS MX96 SPRi array platform (Carterra; Newton, PA). […] The sensor chip was transferred to the Continuous Flow Microspotter (CFM) unit to capture each anti-CD33 mAb at 10 μg/ml for 10 minutes. Binding was measured on IBIS SPRi by single cycle kinetics without regeneration. […] The raw binding data (.trix file format) were referenced and aligned using SprintX software (Wasatch, Ver 1.9.3.2), then exported (.ibmx file format) to Scrubber software (Ver. 2.0) for 1:1 binding kinetic analyses (Wasatch, version 2.0.0.33) to extract the koff results.
row,koff [s⁻¹],Binder
1,0.000763,B1
2,0.0012,B2
3,0.000947,B3
4,0.000351,B4
5,0.00682,B5
6,0.000116,B6
7,0.00217,B7
8,0.000408,B8
9,0.00067,B9

# Molecular target: Human CD33 ECD-HSA (human)
# Assay: SPRi off-rate screen (IBIS MX96), mAb captured by anti-human Fc; column head prints KD
# Method: as §2
# Chain of Human CD33 ECD-HSA (human) (chain, as listed by the source): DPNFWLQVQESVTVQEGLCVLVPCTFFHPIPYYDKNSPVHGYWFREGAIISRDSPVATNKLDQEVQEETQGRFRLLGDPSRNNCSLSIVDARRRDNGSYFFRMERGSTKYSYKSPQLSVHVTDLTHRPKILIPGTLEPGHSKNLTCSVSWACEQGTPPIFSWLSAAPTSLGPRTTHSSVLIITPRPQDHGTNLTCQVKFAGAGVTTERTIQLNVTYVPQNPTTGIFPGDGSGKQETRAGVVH
row,koff [s⁻¹],Binder
1,0.000284,B1
2,0.00313,B2
3,0.00457,B3
4,0.000154,B4
5,0.000328,B5
6,0.000215,B6
7,0.000461,B7
8,9.12e-05,B8
9,0.000341,B9

# Molecular target: T3, Human CD33 full length, expressed on HEK293F cells (human, UniProt P20138 18-364)
# T3 construct: HEK293F cells transduced with lentivirus containing full length human CD33; also called huCD33
# Assay: flow cytometry, HEK293F cells expressing human CD33
# Method: as §1
# T3 sequence (P20138 18-364 limits assumed): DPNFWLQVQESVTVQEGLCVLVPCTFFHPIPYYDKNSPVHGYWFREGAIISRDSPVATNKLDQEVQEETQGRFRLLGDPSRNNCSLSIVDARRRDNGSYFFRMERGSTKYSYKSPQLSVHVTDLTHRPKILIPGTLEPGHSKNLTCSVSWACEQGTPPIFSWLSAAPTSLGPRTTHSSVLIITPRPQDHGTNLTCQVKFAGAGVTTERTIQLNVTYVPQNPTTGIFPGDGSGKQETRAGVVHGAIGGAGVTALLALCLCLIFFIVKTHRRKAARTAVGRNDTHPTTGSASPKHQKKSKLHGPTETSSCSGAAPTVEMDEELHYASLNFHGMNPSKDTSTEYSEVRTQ
MFI at 0 nM mAb (background) [MFI],MFI at 0.6 nM mAb [MFI],MFI at 6 nM mAb [MFI],MFI at 60 nM mAb [MFI],Binder
93.3,12500,105000,328000,B1
82.5,6750,46300,197000,B2
86.3,9670,62200,248000,B3
78.3,9200,79700,259000,B4
77.8,4990,41900,237000,B5
105,7630,59200,188000,B6
87.4,1020,7860,93000,B7
94,4030,33400,201000,B8
73.4,5030,41300,189000,B9

# Molecular target: Human CD33 ECD-HSA (human)
# Assay: ProteOn SPR, mAb captured by anti-human Fc, 1:1 Langmuir fit
# Method: (§3) The panel of mAbs was then further characterized for full affinity analysis as well as epitope binning. The binding of anti-CD33 mAbs to recombinant human CD33 ECD-HSA (C33W2) and cyno CD33 ECD-HSA (C33W1) was measured by ProteOn SPR (Bio-Rad). […] Different mAbs were captured on the anti-human Fc IgG surface at 0.25 or 0.5 μg/ml (160-300 RU) in vertical ligand orientation, with the 6th ligand channel as no ligand surface control. Human and cyno CD33-HSA proteins at 0.3 μM concentration in 3-fold dilution series of 5 concentrations flew in as analyte to bind to captured mAbs in the horizontal orientation. A buffer sample was also injected in the 6th channel to monitor the dissociation of captured mAb and baseline stability. […] The raw biding data were processed by double referencing after subtracting the response data from: 1) the inter-spot to correct for the non-specific interactions between the Ag and the empty chip surface; 2) the buffer channel to correct for baseline drifting due to the dissociation of captured mAb surface over time. The processed data at all antigen concentrations for each mAb were globally fit to a 1:1 simple Langmuir binding model to extract estimates of the kinetic (kₒₙ, koff) and affinity (Kd) constants.
Kd [pM],koff [s⁻¹],kon [M⁻¹ s⁻¹],Binder
230,0.0002,871000,B1
19200,0.00396,206000,B2
7010,0.00374,533000,B3
140,0.000134,992000,B4
760,0.00039,515000,B5
260,0.000253,985000,B6
1930,0.000521,270000,B7
100,5.59e-05,559000,B8
610,0.00027,445000,B9

# Molecular target: T2, Cyno CD33 ECD-HSA
# Assay: as above
# Method: as §3
Kd [pM],koff [s⁻¹],kon [M⁻¹ s⁻¹],Binder
587,0.00054,919000,B1
4740,0.00148,313000,B2
1220,0.00088,723000,B3
304,0.000339,1.12e+06,B4
4010,0.0022,548000,B5
72.3,8.37e-05,1.16e+06,B6
11700,0.00288,247000,B7
846,0.000508,600000,B8
1380,0.000751,545000,B9
